Test results reported in article PMC3467281.

Biological target: T1, Fas (mouse (endogenous in WEHI-231)) (UniProt P25446)
T1 sequence: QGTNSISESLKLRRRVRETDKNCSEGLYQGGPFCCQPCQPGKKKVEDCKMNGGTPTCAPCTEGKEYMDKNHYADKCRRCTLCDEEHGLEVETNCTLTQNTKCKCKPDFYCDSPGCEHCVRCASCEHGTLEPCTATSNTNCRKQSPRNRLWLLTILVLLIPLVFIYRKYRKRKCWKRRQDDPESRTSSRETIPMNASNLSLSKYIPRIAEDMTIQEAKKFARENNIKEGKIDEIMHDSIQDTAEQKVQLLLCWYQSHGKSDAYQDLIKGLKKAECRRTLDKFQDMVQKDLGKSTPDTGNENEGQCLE

With “FasL (from UniProt P41047 1-279) (ligand)” the survival of p21–35-loaded WEHI-231 cells co-cultured with the cytolytic CD4+ T cell clone R3TB7, restored by increasing concentrations of an anti-FasL antibody (Annexin V / 7-AAD) (% of WEHI-231 cell survival) was 80.
